The text below walks through data of the supplement of paper PMC10126150.

± gives the standard deviation of the averaged measurements.
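Also: ATP exposure 15 min at 22 °C before imaging.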

The series relates to ATP. Briefly: switch fluorescence ratio, 500 uM ATP over buffer (Cy3 cluster intensity, sum of 5 cycles each) (fold (ratio)); higher = stronger signal-on switching upon ATP binding; sequences stand for … in TCGTCGGCAGCGTCAGATGTGTATAAGAGACAGTTTTTTTTTTTTTTTTTTTTTTTTT…TC. To be noted: aptamer strand: ATP DNA aptamer (quencher-CACCTGGGGGAGTATTGCGGAGGAAGG + anchor), 100 nM annealed; ATP concentration: 500 uM. In short, it runs like this:
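Five buffer/ATP imaging cycles were run on Cy3-labelled switching-strand clusters on a modified Illumina MiSeq flow-cell, with NaOH stripping and re-annealing between cycles. In each cycle, clusters annealed to 100 nM quencher-labelled ATP aptamer were imaged in selection buffer, then after 15 min with 500 uM ATP at 22 °C. Per cluster, the fluorescence ratio is summed target-cycle over summed buffer-cycle Cy3 intensity, averaged per switch-domain sequence. Only clusters within 100-1000 RFU were kept.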
For CTGGGGGTTA, the switch fluorescence ratio worked out at 0.999 ± 0.059.

GTGTTTTGGT: the switch fluorescence ratio came to 0.98 ± 0.024.

As to ATGTACGCTT, the switch fluorescence ratio is 1.052 ± 0.0038.

With TTTGGAAATG, the switch fluorescence ratio turned out to be 1.0077 ± 0.00015.

Regarding TTACGGGGAC, the switch fluorescence ratio is 1.08 ± 0.089.

As to TTTTGGTTAA, the switch fluorescence ratio is 1.02 ± 0.041.

For the sequence GACGGTTGTG, the switch fluorescence ratio amounted to 1 ± 0.012.

For AGGGCGGGGC, the switch fluorescence ratio was 0.944 ± 0.061.

Regarding TTTAGATGTG, the switch fluorescence ratio worked out at 1 ± 0.014.

Turning to AGGCCGGAAT, the switch fluorescence ratio was determined as 1.27 ± 0.46.

Take TTTTAAATAA: the switch fluorescence ratio came to 1.01 ± 0.026.

In the case of AAATCTTTCG, the switch fluorescence ratio was determined as 1.05 ± 0.044.

For TTGGTCCGGT, the switch fluorescence ratio turned out to be 0.988 ± 0.018.

As to TCCGCACCGT, the switch fluorescence ratio stood at 1.76 ± 0.23.

For the sequence AGGGTTATAA, the switch fluorescence ratio stood at 0.969 ± 0.033.

For CAGTCTGTGT, the switch fluorescence ratio is 0.9921 ± 0.0075.

Regarding CGGAACAGTT, the switch fluorescence ratio worked out at 1.02 ± 0.024.

For GGTTAATGGC, the switch fluorescence ratio was 1.05 ± 0.039.

In the case of TAGTAAGGGG, the switch fluorescence ratio was 0.969 ± 0.051.

Take GCGGTTTCGG: the switch fluorescence ratio was determined as 0.994 ± 0.024.

For ATTCACTTGA, the switch fluorescence ratio was 1.08 ± 0.061.

Take TAACATCTTC: the switch fluorescence ratio is 1.01 ± 0.079.

Take GGGTGTGAAC: the switch fluorescence ratio is 0.9859 ± 0.0046.

Turning to ATTGAGATCG, the switch fluorescence ratio was 1.01 ± 0.033.

For the sequence ACTGGGGTCT, the switch fluorescence ratio was 1.01 ± 0.026.

With TGTGGTTTAC, the switch fluorescence ratio worked out at 0.978 ± 0.017.

In the case of CGTCTTAGTT, the switch fluorescence ratio worked out at 0.993 ± 0.015.

For GGCCGGAATT, the switch fluorescence ratio turned out to be 1.17 ± 0.19.

Take TGAGGAAGGG: the switch fluorescence ratio stood at 1.04 ± 0.099.

With GCTGGGGTCG, the switch fluorescence ratio turned out to be 0.9631 ± 0.0029.

With TTTTAGGTTA, the switch fluorescence ratio came to 0.986 ± 0.027.

AGATATGTTG: the switch fluorescence ratio is 0.996 ± 0.012.

In the case of GCCCAATTTT, the switch fluorescence ratio stood at 0.998 ± 0.034.

In the case of ACGGGGCATT, the switch fluorescence ratio amounted to 1 ± 0.043.

Turning to GAGATTTATT, the switch fluorescence ratio was 0.985 ± 0.057.

TTTGATACTG: the switch fluorescence ratio worked out at 1.06 ± 0.11.

As to AAGGGGGTCT, the switch fluorescence ratio turned out to be 1.02 ± 0.083.

ATGGCAGGTT: the switch fluorescence ratio amounted to 1.01 ± 0.021.

On to TATTTTACGC, for which the switch fluorescence ratio is 1.01 ± 0.024.

Consider GGGTAATAAA, for which the switch fluorescence ratio amounted to 1.019 ± 0.0052.

In the case of GAGGTTGGGG, the switch fluorescence ratio amounted to 1.02 ± 0.059.

Turning to GCTGGGAGGG, the switch fluorescence ratio is 0.979 ± 0.022.

GACCTTTCTG: the switch fluorescence ratio was 0.997 ± 0.025.

In the case of GGAGGTAGTC, the switch fluorescence ratio amounted to 0.99 ± 0.033.

As for AAATATATTA, the switch fluorescence ratio was 1.02 ± 0.016.

For AAGGGATTCT, the switch fluorescence ratio was found to be 1.03 ± 0.084.

Take TTTCGCGACA: the switch fluorescence ratio came to 1.34 ± 0.5.

For the sequence AGTTTGCGGG, the switch fluorescence ratio worked out at 1.006 ± 0.0094.

AAGGGTTGCT: the switch fluorescence ratio stood at 1.01 ± 0.042.

On to CATTCAGTTC, for which the switch fluorescence ratio was found to be 1 ± 0.058.

For the sequence AGTATTGTCT, the switch fluorescence ratio came to 1.039 ± 0.003.

As to TTGAGGGATC, the switch fluorescence ratio is 1.01 ± 0.06.

Consider GTTGTAAAGA, for which the switch fluorescence ratio turned out to be 0.98 ± 0.019.

For the sequence AGGAGCTGAA, the switch fluorescence ratio was determined as 0.987 ± 0.021.

For TATTAATATT, the switch fluorescence ratio amounted to 1.003 ± 0.0059.

For the sequence TAAGGAGGGG, the switch fluorescence ratio is 0.981 ± 0.024.

TGGGTGATGT: the switch fluorescence ratio was 0.996 ± 0.066.

Regarding ACACAGTGCT, the switch fluorescence ratio was 1 ± 0.011.

For the sequence CGATGGAGGA, the switch fluorescence ratio was 0.98967 ± 0.00091.

On to GGGGCGAGGT, for which the switch fluorescence ratio amounted to 0.9974 ± 0.0041.

With AAGGTTTTAA, the switch fluorescence ratio turned out to be 0.9825 ± 0.0066.

AACTACGTCT: the switch fluorescence ratio amounted to 0.986 ± 0.055.

As to GTGTGTGGGG, the switch fluorescence ratio was 1.01 ± 0.048.

Turning to AAGTGCTACC, the switch fluorescence ratio stood at 1.02 ± 0.06.

As to CGAGTGGATG, the switch fluorescence ratio came out at 0.994 ± 0.018.

On to ATAATGATGT, for which the switch fluorescence ratio came out at 0.97 ± 0.026.

As to GCTGGGTTTG, the switch fluorescence ratio was found to be 0.9866 ± 0.0088.

With CGGGAGGTTT, the switch fluorescence ratio was 0.9854 ± 0.0083.

On to ACCATTACAC, for which the switch fluorescence ratio was 1.24 ± 0.024.

TCGATTTCTT: the switch fluorescence ratio came out at 1.1 ± 0.077.

With GGTGGGGGGT, the switch fluorescence ratio came to 0.989 ± 0.029.

On to GACAATAAGT, for which the switch fluorescence ratio was 1.04 ± 0.012.

On to TTTAATGTTG, for which the switch fluorescence ratio was found to be 1.014 ± 0.0082.

For AACGGCGCAT, the switch fluorescence ratio came to 1.02 ± 0.052.

For the sequence TAGTGGGGGC, the switch fluorescence ratio is 1.01 ± 0.044.

With AGTTTACTGG, the switch fluorescence ratio was found to be 0.9626 ± 0.0022.

In the case of TTGTTATAGG, the switch fluorescence ratio turned out to be 1.06 ± 0.14.

Take AGTGGTTCGC: the switch fluorescence ratio stood at 1.01 ± 0.024.

Consider AAGAGGTGGG, for which the switch fluorescence ratio was found to be 0.99 ± 0.024.
